Measured values: article PMC12814185, “Receptor-Mediated Shuttling of a D‑Amino Acid Peptide Achieves High Nanomolar Cytosolic Concentrations” (Journal of the American Chemical Society, 2025)
[ ]: non-standard residue; d: D form. sulfo‑Cy5 = sulfo-cyanine 5 dye; Cit = NC(=O)NCCC[C@H](N)C(=O)O; Pra = C#CC[C@H](N)C(=O)O; (EG)3 = spacer

Columns and labels:
[1] = target: T1, recombinant human GST-MDM2 (human, UniProt Q00987 1-491); experiment: fluorescence polarisation; details: both partners purified
T1 construct: source: recombinant
T1 sequence (Q00987 whole entry): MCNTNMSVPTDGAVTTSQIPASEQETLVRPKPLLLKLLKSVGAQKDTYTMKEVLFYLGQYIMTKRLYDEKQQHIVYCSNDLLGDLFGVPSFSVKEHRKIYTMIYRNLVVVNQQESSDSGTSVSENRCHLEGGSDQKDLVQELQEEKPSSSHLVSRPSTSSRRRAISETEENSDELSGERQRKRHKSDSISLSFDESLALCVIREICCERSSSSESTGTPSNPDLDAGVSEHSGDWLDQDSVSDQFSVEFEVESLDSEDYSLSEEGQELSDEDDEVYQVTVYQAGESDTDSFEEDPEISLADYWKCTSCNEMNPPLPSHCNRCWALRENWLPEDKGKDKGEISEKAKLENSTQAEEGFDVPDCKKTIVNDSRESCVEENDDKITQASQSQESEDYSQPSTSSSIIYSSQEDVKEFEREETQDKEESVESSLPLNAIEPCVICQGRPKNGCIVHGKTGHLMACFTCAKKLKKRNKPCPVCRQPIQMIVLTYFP

[2] = target: T2, chemokine-like receptor 1 (CMKLR1) (UniProt Q99788 1-373); experiment: cell-based or functional assay
T2 sequence (looked up): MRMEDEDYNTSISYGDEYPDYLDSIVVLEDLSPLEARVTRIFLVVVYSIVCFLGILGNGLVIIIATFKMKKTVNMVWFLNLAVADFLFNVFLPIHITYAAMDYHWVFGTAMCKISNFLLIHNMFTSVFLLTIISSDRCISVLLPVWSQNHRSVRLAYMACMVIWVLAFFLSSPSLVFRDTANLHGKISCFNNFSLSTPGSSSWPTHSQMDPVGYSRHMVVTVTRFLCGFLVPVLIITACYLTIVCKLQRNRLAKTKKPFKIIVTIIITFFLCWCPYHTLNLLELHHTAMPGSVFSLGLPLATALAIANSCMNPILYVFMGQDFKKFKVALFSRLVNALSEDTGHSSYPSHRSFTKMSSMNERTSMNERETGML

B1: Cy5-PMIγ-cC9 (peptide)
chain: {sulfo‑Cy5-(EG)3}-[dD][dW][dW][dP][dL][dA][dF][dE][dA][dL][dL][dR]GEV[Cit]-{(EG)3-Pra-NH2}
modifications: not fully specified (bridges); also: CuAAC triazole link from Pra to azidolysine of the cC9 chain
[1]
  Kd: 0.09 µM
[2]
  Ca2+ flux assay, EC50: 0.185 µM
